Data: patent US20080220446A1, “Method for Detecting and/or Removing Protein and/or Peptide Comprising a Cross-Beta Structure From an Aqueous Solution Comprising a Protein” (priority 2005, published 2008)

How the values were obtained:
tPA [1] = target: T1, tPA (Homo sapiens, UniProt P00750); experiment: tPA binding assay with immobilized biopharmaceuticals in an ELISA; details: coated 1:10, one-site binding model
Description: Plates were washed twice with Tris buffered saline pH 7.2 containing 0.1% Tween20 (TBST) and blocked with PBS containing 1% Tween20 for 1 hour at room temperature. […] Plates were washed five times with TBST and incubated with peroxidase labeled anti-mouse immunoglobulins (RAMPO; DAKOCytomation, Glostrup, Denmark) diluted 1:3000 in PBST for 30 minutes at room temperature. Plates were washed five times with PBS 0.1% Tween20, and stained with 100 μL/well of tetramethyl-benzidine (TMB) substrate (Biosource Europe, Nivelles, Belgium). The reaction was terminated with 50 μL/well of 2 M H2SO4 and substrate conversion was read at 450 nm on a Spectramax340 microplate reader. Curves were fitted with a one-site binding model (GraphPad Prism version 4.02 for Windows, Graphpad Software, Calif., USA) from which Kd and Bmax were determined.
(§1) Protein therapeutics were obtained from the local hospital pharmacy and analyzed within the expiry limits as stated by the manufacturers.

tPA [2] = target: T1, tPA; experiment: Plasminogen-activation assay (tPA activation, S-2251); type: biochemical
Description: Plasmin (Pls) activity was assayed as described^16. Peptides and proteins that were tested for their stimulatory ability were regularly used at 100 μg ml^−1. […] Chromogenic substrate S-2251 (Chromogenix, Instrumentation Laboratory SpA, Milano, Italy) was used to measure Pls activity. Conversion of zymogen factor XII (#233490, Calbiochem, EMD Biosciences, Inc., San Diego, Calif.) to proteolytically active factor XII (factor XIIa) was assayed by measurement of the conversion of chromogenic substrate Chromozym-PK (Roche Diagnostics, Almere, The Netherlands) by kallikrein. Chromozym-PK was used at a concentration of 0.3 mM. Factor XII, human plasma prekallikrein (#529583, Calbiochem) and human plasma cofactor high-molecular weight kininogen (#422686, Calbiochem) were used at concentrations of 1 μg ml^−1. […] Assays were performed using microtiter plates (Costar, Cambridge, Mass., USA). Peptides and proteins were tested for their ability to activate factor XII. 150 μg ml^−1 kaolin, an established activator of factor XII was used as positive control and solvent (H2O) as negative control. The conversion of Chromozym-PK was recorded kinetically at 37° C. for at least 60 minutes. Assays were done in duplicate.
Formulated protein therapeutics were obtained from the local hospital pharmacy and were used as supplied by the manufacturers. […] Lyophilized therapeutics were dissolved according to the manufacturers recommendations. GH, zinc-insulin, Cealb and gelatin were stored at −20, 4, room temperature, 37 and 65° C. Other protein therapeutics were only kept at 4° C., and assayed for the presence of cross-β structure at shown time points. Enhancement in fluorescence of ThT and Congo red was measured with all formulated protein therapeutics. For this purpose, proteins were diluted to the indicated concentrations. […] Zinc-insulin was diluted tenfold in the activation assay, GH was diluted to a final concentration of 500 μg ml^−1. Activation of factor XII and prekallikrein by the therapeutics was tested in the chromogenic factor XII assay (see above). […] After coating, plates were blocked with Blocking Reagent (Roche Diagnostics, Almere, The Netherlands).
To prepare structurally altered ovalbumin (OVA) with amyloid cross-β structures, purified OVA (Sigma, A-7641, lot 071k7094) was heated to 85° C. One mg ml^−1 OVA in 67 mM NaPi buffer pH 7.0, 100 mM NaCl, was heated for two cycles in PCR cups in a PTC-200 thermal cycler (MJ Research, Inc., Waltham, Mass., USA). In each cycle, OVA was heated from 30 to 85° C. at a rate of 5° C./min. Native OVA (nOVA) and heat-denatured OVA (dOVA) were tested in the ThT fluorescence assay and in the Plg-activation assay. In the fluorescence assay and in the Plg-activation assay, 25 and 100 μg ml^−1 nOVA and dOVA were tested, respectively. TEM images of nOVA and dOVA were taken to check for the presence of large aggregates.
MSA (#126674, Calbiochem) was dissolved in 8 M urea, 100 mM Tris-HCl pH 8.2, at 10 mg ml^−1 final concentration. Dithiothreitol (DTT) was added to a final concentration of 10 mM. Air was replaced by N2 and the solution was incubated for 2 h at room temperature. Then, the solution was transferred to ice and iodoacetamide was added from a 1 M stock to a final concentration of 20 mM. […] Alkyl-MSA was dialyzed against H2O before use. […] In the ThT-fluorescence assay 25 μg ml^−1 nMSA and alkyl-MSA were tested, and in the Plg-activation assay 100 μg ml^−1 was tested. The presence of aggregates or fibrils was analyzed using TEM.
Lyophilized sterile glucagon was dissolved at 1 mg ml^−1 in H2O with 10 mM HCl. The solution was subsequently kept at 37° C. for 24 h, at 4° C. for 14 days and again at 37° C. for 9 days. […] TEM analysis was performed to assess the presence of large multimeric structures.

[3] = ThT fluorescence enhancement by biopharmaceuticals; type: physicochemical; details: +/− SD; five μL of protein therapeutic
Description: Fluorescence of ThT—protein/peptide adducts was measured as follows. […] Fluorescence was measured at 485 nm upon excitation at 435 nm. Background signals from buffer, buffer with ThT and protein/peptide solution without ThT were subtracted from corresponding measurements with protein solution incubated with ThT. Regularly, fluorescence of Aβ was used as a positive control, and fluorescence of FP10, a non-amyloid fibrin fragment^16, was used as a negative control. Fluorescence was measured in triplicate on a Hitachi F-4500 fluorescence spectrophotometer (Ltd., Tokyo, Japan).
β2-GPI was reduced and alkylated as follows. Sixhundredforty μl of β2-GPI stock was mixed with 640 μl of 8 M Urea (cooled solution) in 0.1 M Tris pH-8.2. The solution was degassed with N2 gas for approximately 6 minutes. From a 1 M DTT stock 12.8 μl was added to the solution, mixed and incubated for 3 hours at room temperature. A 1 M Iodoacetamide (Sigma; I-6125) was prepared, of which 25.6 μl was added to the β2-GPI reaction mixture. The solution was subsequently dialysed against PBS. […] Signals obtained with alkyl-β2gpi are compared with those obtained with native β2gpi starting material and with positive control acid/heat denatured amyloid-like misfolded γ-globulins.
as §1
Fluorescence of Thioflavin T (ThT; Sigma T-3516, St. Louis, Mo., USA) and Congo red (CR; Aldrich Chemical Company Inc., Milwaukee, Wis., USA) was measured on a Hitachi F-4500 spectrophotometer at an excitation wavelength of 435 nm and emission wavelength of 485 nm for ThT and an excitation wavelength of 550 nm and emission wavelength of 595 nm for Congo red. […] Fluorescence was measured in triplicate. Background fluorescence of both protein in buffer and dye-solution were subtracted from the total fluorescence signal. Five μg/mL fibrillar amyloid-β(1-40) E22Q (Peptide Synthesis Facility of the Dutch Cancer Institute NKI, Amsterdam, The Netherlands) was used as a positive control in all fluorescence assays.

T1 sequence (P00750 36-562): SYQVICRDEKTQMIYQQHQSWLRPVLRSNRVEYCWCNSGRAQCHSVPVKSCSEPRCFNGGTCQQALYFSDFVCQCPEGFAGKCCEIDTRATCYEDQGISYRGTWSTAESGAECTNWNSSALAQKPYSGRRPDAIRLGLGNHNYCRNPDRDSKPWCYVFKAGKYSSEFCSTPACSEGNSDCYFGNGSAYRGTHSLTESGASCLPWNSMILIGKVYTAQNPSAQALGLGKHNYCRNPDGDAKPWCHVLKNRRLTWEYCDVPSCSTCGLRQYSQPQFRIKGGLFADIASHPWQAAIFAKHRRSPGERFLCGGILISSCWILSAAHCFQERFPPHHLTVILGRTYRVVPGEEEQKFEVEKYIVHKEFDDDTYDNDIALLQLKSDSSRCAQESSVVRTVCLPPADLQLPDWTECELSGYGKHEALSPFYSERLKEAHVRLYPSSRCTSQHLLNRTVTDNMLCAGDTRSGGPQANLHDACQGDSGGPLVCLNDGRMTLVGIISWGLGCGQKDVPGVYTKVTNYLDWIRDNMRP

Question: For “Somatropin: human growth hormone (Genotropin, Pharmacia)”, which Kd (tPA [1]) is on record?
Answer: The Kd was 9.05 nM.

Question: What about the “tPA Binding Bmax” value (tPA [1]) of the same substance?
Answer: The value was 0.9369 OD450 nm.

Question: And the tPA activation (tPA [2]; protein solutions stored at 4° C.)?
Answer: Its tPA activation is “induced tPA activation”.

Question: And the “Fluorescence ThT” value [3]?
Answer: Its value is 1317 +/− 10 a.u.

Question: With “Abciximab: abciximab, an inhibitor of blood platelet aggregation (ReoPro, Centocor)” as the substance, how does the “tPA Binding Bmax” value (tPA [1]) read?
Answer: Its value is 0.5329 OD450 nm.

Question: And the “Pls activity (tPA activating properties)” value (tPA [2]; after storage at 65° C.)?
Answer: Its value is “induced Pls activity”.

Question: And the “Fluorescence ThT” value [3]?
Answer: The value was 8 +/− 8 a.u.
